According to the supplement of paper PMC9112550, “Optimization of the antimicrobial peptide Bac7 by deep mutational scanning” (BMC Biology, 2022):

tested on: Escherichia coli TOP10; assay: shrunken log2 fold change of peptide-encoding DNA abundance (4.5 h post-induction vs induction); higher = less antimicrobial activity (less host growth inhibition); conditions: time post-induction: 4.5 h; library: site-saturation at positions 5, 18, 19, 20
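Further: peptides expressed intracellularly from a pBAD plasmid library in pooled LB shake-flask culture, induced with 0.3% L-arabinose, DNA abundance read by NGS, three biological replicates, DESeq2 with apeglm shrinkage.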

Row | Sequence | shrunken log2 fold change
1 | RRIRCRPPRLPRPRPRPQARPRP | -0.421
2 | RRIRARPPRLPRPRPRPPKSPRP | 0.658
3 | RRIRARPPRLPRPRPRPCHDPRP | -0.00479
4 | RRIRIRPPRLPRPRPRPWWPPRP | 0.027
5 | RRIRTRPPRLPRPRPRPQNSPRP | -1.19
6 | RRIRIRPPRLPRPRPRPNDNPRP | -0.912
7 | RRIRQRPPRLPRPRPRPIHNPRP | -0.464
8 | RRIRGRPPRLPRPRPRPVPNPRP | 0.581
9 | RRIRSRPPRLPRPRPRPTACPRP | 0.249
10 | RRIRDRPPRLPRPRPRPAVVPRP | 0.0373
11 | RRIRKRPPRLPRPRPRPSNFPRP | -0.198
12 | RRIRMRPPRLPRPRPRPQEGPRP | 0.0197
13 | RRIRVRPPRLPRPRPRPVKMPRP | 0.0133
14 | RRIRWRPPRLPRPRPRPKWQPRP | 0.0119
15 | RRIRQRPPRLPRPRPRPIIGPRP | -0.161
16 | RRIRRRPPRLPRPRPRPDGTPRP | 0.0222
17 | RRIRNRPPRLPRPRPRPVDHPRP | -0.01
18 | RRIRPRPPRLPRPRPRPQEIPRP | 0.017
19 | RRIRTRPPRLPRPRPRPVCPPRP | 0.186
20 | RRIRWRPPRLPRPRPRPNKTPRP | 0.0629
21 | RRIRSRPPRLPRPRPRPHNLPRP | -0.33
22 | RRIRERPPRLPRPRPRPSHVPRP | -2.72
23 | RRIRKRPPRLPRPRPRPRNFPRP | 0.731
24 | RRIRCRPPRLPRPRPRPTKGPRP | -0.0938
25 | RRIRYRPPRLPRPRPRPFTAPRP | -0.311

Row | Sequence | shrunken log2 fold change
26 | RRIRARPPRLPRPRPRPPHMPRP | 0.661
27 | RRIRRRPPRLPRPRPRPCMPPRP | -0.301
28 | RRIRVRPPRLPRPRPRPAFLPRP | 0.0548
29 | RRIRSRPPRLPRPRPRPYFPPRP | -0.694
30 | RRIRFRPPRLPRPRPRPWQPPRP | 0.0512
31 | RRIRKRPPRLPRPRPRPDCMPRP | -0.0185
32 | RRIRARPPRLPRPRPRPRVQPRP | 0.359
33 | RRIRSRPPRLPRPRPRPPKSPRP | 0.271
34 | RRIRHRPPRLPRPRPRPIPAPRP | 0.32
35 | RRIRSRPPRLPRPRPRPVFGPRP | 0.0263
36 | RRIRLRPPRLPRPRPRPDKNPRP | -0.0881
37 | RRIRVRPPRLPRPRPRPWDNPRP | 0.0145
38 | RRIRERPPRLPRPRPRPWYWPRP | 0.0516
39 | RRIRSRPPRLPRPRPRPFKLPRP | -0.71
40 | RRIRPRPPRLPRPRPRPRNIPRP | -0.222
41 | RRIRARPPRLPRPRPRPMTLPRP | 0.151
42 | RRIRFRPPRLPRPRPRPGKDPRP | -0.105
43 | RRIRPRPPRLPRPRPRPSKTPRP | 0.0619
44 | RRIRFRPPRLPRPRPRPYPVPRP | -0.115
45 | RRIRTRPPRLPRPRPRPQTVPRP | -0.216
46 | RRIRQRPPRLPRPRPRPYTGPRP | -0.0162
47 | RRIRKRPPRLPRPRPRPYEMPRP | 0.138
48 | RRIRVRPPRLPRPRPRPFWFPRP | 0.149
49 | RRIRMRPPRLPRPRPRPRKQPRP | 0.938
50 | RRIRIRPPRLPRPRPRPVCMPRP | -0.564

Row | Sequence | shrunken log2 fold change
51 | RRIRQRPPRLPRPRPRPFCDPRP | -0.259
52 | RRIRGRPPRLPRPRPRPENSPRP | 0.678
53 | RRIRGRPPRLPRPRPRPRSHPRP | 0.239
54 | RRIRKRPPRLPRPRPRPWCWPRP | 0.357
55 | RRIRQRPPRLPRPRPRPRWQPRP | 0.0759
56 | RRIRPRPPRLPRPRPRPVDCPRP | 0.00936
57 | RRIRARPPRLPRPRPRPCYFPRP | -0.324
58 | RRIRERPPRLPRPRPRPFRVPRP | -0.0333
59 | RRIRCRPPRLPRPRPRPVGVPRP | 0.299
60 | RRIRWRPPRLPRPRPRPTRMPRP | 0.381
61 | RRIRDRPPRLPRPRPRPVNVPRP | -0.96
62 | RRIRARPPRLPRPRPRPDQSPRP | 0.113
63 | RRIRPRPPRLPRPRPRPWKAPRP | -0.133
64 | RRIRMRPPRLPRPRPRPMLGPRP | 0.141
65 | RRIRPRPPRLPRPRPRPRPSPRP | 0.333
66 | RRIRQRPPRLPRPRPRPACIPRP | -0.165
67 | RRIRQRPPRLPRPRPRPQHVPRP | 0.00911
68 | RRIRARPPRLPRPRPRPDKCPRP | -0.0816
69 | RRIRFRPPRLPRPRPRPKESPRP | -0.0731
70 | RRIRGRPPRLPRPRPRPGMHPRP | 0.589
71 | RRIRMRPPRLPRPRPRPRQYPRP | -0.0556
72 | RRIRPRPPRLPRPRPRPPTCPRP | 0.051
73 | RRIRTRPPRLPRPRPRPVLVPRP | -0.106
74 | RRIRARPPRLPRPRPRPLTGPRP | 0.172
75 | RRIRIRPPRLPRPRPRPTMWPRP | -0.0599
